# Primed or numbered codes have the meaning given here. Where no end group is shown, it is not given here. FAM = carboxyfluorescein fluorophore label; 5FAM′ = 5-carboxyfluorescein
# Assays:
# [1] = test system: P. aeruginosa clinical isolate strains; experiment: cleavage of FRET-paired substrates by clinical isolate supernatants; type: biochemical, Pseudomonas aeruginosa; details: five clinical isolate strains
# Method: P. aeruginosa strains isolated from de-identified clinical samples were generously provided by Dr. Deborah Hung, MD, PhD (Massachusetts General Hospital). Cultures of each were grown in LB broth overnight, then were subcultured in fresh LB and each strain grown to OD-matched mid log phase (OD600˜0.5). Supernatants were collected by centrifugation and substrate cleavage was monitored as described above.
# thrombin = thrombin (Mus musculus, UniProt P19221); experiment: recombinant host protease cleavage assay; type: biochemical
# Method: (§1) The specificity of LAS and ELA for P. aeruginosa cleavage was tested by collecting supernatants from PA01 or Staphylococcus aureus cultures and incubating them with FRET-paired substrates LAS-Q and ELA-Q in 384 well plates. […] To investigate whether the LAS and ELA substrates are also susceptible to cleavage by host proteases, each was incubated with recombinant mouse proteases.
# (§2) Supernatant from PA01 and S. aureus were collected and added to substrates in 384 well plates and dequenching of FAM was monitored at 37° C. (Tecan). Fluorescence change at 30 minutes was reported. For recombinant protease assays, enzyme was added to the substrates in enzyme-specific buffer (MMP7 & 9 buffer: 50 mM Tris, 150 mM NaCl, 5 mM CaCl2), […], pH 7.5; Thrombin: PBS; NE: 100 mM HEPES, 500 mM NaCl, 0.05% Tween 20) in a 384 well plate for time-lapse fluorimetry to measure dequenching at 37° C. (Tecan).
# MMP13 = MMP13 (Mus musculus, UniProt P33435); experiment: recombinant host protease cleavage assay; type: biochemical
# Method: as §1, §2
# MMP7 = biological target: T1, MMP7 (Mus musculus, UniProt Q10738); experiment: recombinant host protease cleavage assay; type: biochemical
# T1 sequence (Q10738 95-264): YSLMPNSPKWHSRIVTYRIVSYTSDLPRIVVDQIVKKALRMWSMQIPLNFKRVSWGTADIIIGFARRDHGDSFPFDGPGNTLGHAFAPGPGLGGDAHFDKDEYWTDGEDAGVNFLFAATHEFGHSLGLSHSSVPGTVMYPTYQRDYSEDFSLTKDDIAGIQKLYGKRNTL
# Method: as §1, §2
# PA01 supernatant = experiment: cleavage of FRET-paired substrates by bacterial supernatant; type: biochemical, Pseudomonas aeruginosa
# Method: as §1, §2
# [2] = urinary filtration of mass-encoded free reporters after IT or IV administration; type: in vivo, mice; details: doses 2.5 ng to 25 ng, urine at 1 hour
# Text: To enable detection of a broad spectrum of disease-associated proteases in vivo, the 14 peptides of the LUAD substrate panel were appended with mass-encoded reporters (PP1-14; Table 3). Following substrate proteolysis, the reporters diffuse away from the nanoparticle scaffold and are sized so as to be able to efficiently cross into the bloodstream, where they can be concentrated into the urine by glomerular filtration (FIG. 1B). As previously described (Kwong et al., Nat Biotechnol 31, 63-70, 2013), variable labeling of the 14-mer Glu-Fibrinopeptide B (Glu-Fib) with stable isotope-labeled amino acids was used to uniquely barcode each of 14 peptide substrates. Multiple reaction monitoring via a liquid chromatography triple quadrupole mass spectrometer (LC-MS/MS) enables quantitative assessment of peptide-liberated urinary reporter concentration within a broad linear range (1-1000 ng/mL, FIG. 8A). Using mass-encoded free reporters, the filtration of Glu-Fib reporters into the urine after IT or IV administration was assessed and strong linearity of the MS assay for both routes of delivery for input doses between 2.5 ng and 25 ng (R^2=1.00, FIG. 8B) was found for both routes of delivery (sloperIT=0.075 ng^−1, slopeIV=0.077 ng^−1; FIG. 8B).
# Liquid chromatography/tandem mass spectrometry was performed by Syneos Health (Princeton, NJ) using a Sciex 6500 triple quadrupole instrument. […]
# recombinant human MMP13 = biological target: T2, recombinant human MMP13 (Homo sapiens, UniProt P45452); experiment: cleavage of aerosolized fluorogenic nanosensor by MMP13; type: biochemical; details: 50 nM MMP13, 5 μM nanosensor
# T2 construct: purchased Enzo
# Method: As a step toward developing a more clinically relevant delivery method, particle durability and biodistribution after aerosolization were also characterized.
# Analysis of nanoparticle stability and protease cleavage susceptibility following aerosolization used […] 250 μM PEG-840 kDa scaffold (FIGS. 22B-22E) or 5 μM PPQ5 PEG-840 kDa nanosensors (FIG. 22F). Protease cleavage assays of aerosolized nanoparticles used 50 nM of recombinant human MMP13 (Enzo).
compound,measurement,setting,value
"LAS-Q: FRET-paired (FAM fluorophore, Dabcyl quencher) substrate for P. aeruginosa protease LasA; includes SEQ ID NO: 45 (GLGGGAGK(FAM); also: Dabcyl quencher, site not given here)",strains whose supernatant gave significant cleavage,[1],3 of the 5 strains
same,cleavage by recombinant protease,thrombin,resist cleavage
same,cleavage by recombinant protease,MMP13,resist cleavage
same,cleavage by recombinant protease,MMP7,resist cleavage
same,cleavage by supernatant (fluorescence signal),"PA01 supernatant; PA01 culture supernatant, fluorescence change at 30 minutes",greater selectivity for cleavage of LAS-Q by PA01
"[Cl-].[Cl-].[Zn+2] [ZnCl2, reference compound]",effect on cleavage signal of LAS-Q and ELA-Q,PA01 supernatant; added to PA01 supernatant,suppressed the cleavage signal
"Glu-Fib reporters: mass-encoded free reporters, stable isotope-labeled variants of 14-mer Glu-Fibrinopeptide B",slope of urinary reporter signal versus input dose,[2]; IT administration,0.075 ng⁻¹
same,slope of urinary reporter signal versus input dose,[2]; IV administration,0.077 ng⁻¹
"PEG-PPQ5: fluorogenic nanosensor, PPQ5 on PEG-840 kDa ({5FAM′}-GGPLGVRGKKC; not fully specified (residue 10); printed as GGPLGVRGKK(CPQ2)-PEG2-C; also: on PEG-840 kDa carrier, site not given here)",sensitivity to in vitro cleavage pre- versus post-aerosolization,recombinant human MMP13,equally sensitive
